{"source": "patent US20230183291A1", "about": "(Bicycle, published 2023)", "binders": {"B1": {"name": "BCY17688 (peptide)", "peptide": "CNAVLCSWARANSFC", "modifications": "linker 1-6-15 via TATA", "notes": "bicyclic peptide without terminal additions"}}, "note": "Numbered stars: 1 amine (or outer) side, 2 acyl side, 3 side chain; on linkers, the order of the positions; unused ones are H or OH. Bridge positions count the residues as written; N and C are the ends. Square brackets hold non-standard residues; d marks the D form. Ends that are not written are not given here. Hse(Me) = O-methyl-homoserine, COCC[C@H](N[*:1])C(=O)[*:2]; TATA = O=C(CC[*:1])N1CN(C(=O)CC[*:2])CN(C(=O)CC[*:3])C1; Phe(3-Cl) = N[C@@H](Cc1cccc(Cl)c1)C(=O)O; Phe(2-Cl) = N[C@@H](Cc1ccccc1Cl)C(=O)O; Phe(3-F) = N[C@@H](Cc1cccc(F)c1)C(=O)O; Phe(3-Me) = Cc1cccc(C[C@H](N)C(=O)O)c1; Phe(4-Me) = Cc1ccc(C[C@H](N)C(=O)O)cc1; Phe(2-F) = N[C@@H](Cc1ccccc1F)C(=O)O; Phe(2-Me) = Cc1ccccc1C[C@H](N)C(=O)O; Hyp = O=C(O)[C@@H]1C[C@@H](O)CN1; hArg = N=C(N)NCCCC[C@H](N)C(=O)O; tBuAla = CC(C)(C)C[C@H](N)C(=O)O; Agb = N=C(N)NCC[C@H](N)C(=O)O; PYA = propargyl-acid"}
{"target": "T1, Biotinylated Human ACE2, His, Avitag protein (ACROBiosystems, AC2-H82E6) (human, UniProt Q9BYF1 18-740)", "T1 construct": "also called biotinylated ACE2; ACE2 protein; not shown: His tag and Avitag", "T1 sequence (Q9BYF1 18-740 limits assumed)": "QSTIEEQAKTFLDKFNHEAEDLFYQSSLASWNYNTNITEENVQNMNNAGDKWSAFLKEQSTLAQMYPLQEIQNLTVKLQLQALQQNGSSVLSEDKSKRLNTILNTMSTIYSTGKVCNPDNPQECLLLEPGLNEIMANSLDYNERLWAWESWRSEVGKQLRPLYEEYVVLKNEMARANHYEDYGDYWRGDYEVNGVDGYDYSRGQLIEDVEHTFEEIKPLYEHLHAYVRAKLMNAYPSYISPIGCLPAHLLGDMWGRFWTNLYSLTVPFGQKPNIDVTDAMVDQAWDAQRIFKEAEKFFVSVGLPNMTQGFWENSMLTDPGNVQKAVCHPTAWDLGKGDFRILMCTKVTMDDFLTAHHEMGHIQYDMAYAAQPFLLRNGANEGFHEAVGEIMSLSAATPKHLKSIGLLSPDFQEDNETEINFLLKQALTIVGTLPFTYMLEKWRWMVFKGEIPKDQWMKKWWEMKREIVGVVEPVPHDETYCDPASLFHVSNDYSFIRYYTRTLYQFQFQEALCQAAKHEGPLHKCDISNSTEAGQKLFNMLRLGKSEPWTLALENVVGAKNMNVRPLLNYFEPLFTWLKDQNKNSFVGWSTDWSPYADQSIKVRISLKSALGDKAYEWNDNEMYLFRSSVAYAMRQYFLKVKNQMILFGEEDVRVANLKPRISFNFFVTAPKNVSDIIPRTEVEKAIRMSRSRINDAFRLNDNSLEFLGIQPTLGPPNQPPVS", "assay": "SPR multiple cycle kinetics, ACE2 captured on CAP chip, peptide analyte 6.25-100 nM; geometric mean", "protocol": "Binding of bicyclic peptides of the invention to Biotinylated Human ACE2, His, Avitag™ protein (ACROBiosystems, AC2-H82E6) was assessed by a MCK analysis. Experiments were performed at 25° C. on a Biacore T200 (Cytiva) running Biacore T200 Control software V2.0.1 and Evaluation software V3.0 (Cytiva). HBS-EP+(Cytiva) was used as running buffer as well as for ligand and analyte dilutions. Biotin CAPture reagent was loaded onto a Series S Sensor CAP Chip (Cytiva) followed by loading of biotinylated ACE2 at a flow rate of 2 μl/min. The surface was then allowed to stabilise.\nMCK data was obtained using bicyclic peptides of the invention as analytes injected at a flow rate of 30 μl/min to minimise any potential mass transfer effects. A five point, two-fold dilution range from 6.25 nM to 100 nM of analyte was prepared in running buffer. For each concentration, the association phases were monitored for 250 seconds and the dissociation phase was measured for 450 seconds. Regeneration of the sensor chip surface was conducted between cycles using the CAP Chip standard regeneration buffer (Cytiva). Multiple repeats of a blank and of Bicycle were programmed into the kinetic run in order to check the stability of both the surface and analyte over the kinetic cycles.\n(§1) The signal from the reference channel Fc1 (no ACE2 captured) was subtracted from that of Fc2, Fc3 and Fc4 to correct for bulk effect and differences in non-specific binding to a reference surface. The signal from each blank run (Fc2-ACE2 captured but no antigen) was subtracted to correct for differences in surface stability. The double referenced sensorgrams were fitted with the Langmuir (1:1) binding model (Equation 1a above) where the closeness of fit of the data to the model is evaluated using the Chi square value which describes the deviation between the experimental and fitted (observed and expected) curves (Equation 1 b above).", "units": {"Kd": "nM"}}
{"binder": "ACNTVLCGWARANSLCA (linker 2-7-16 via TATA, bicyclic peptide, TATA scaffold)", "note": "[BCY17162]", "Kd": 11.4}
{"binder": "Ac-CNTVLCGWARANSLCK(PYA) (linker 1-6-15 via TATA, bicyclic peptide, TATA scaffold)", "note": "[BCY18550]", "Kd": 15.6}
{"binder": "ACNAVLCSWARANSFCA (linker 2-7-16 via TATA, bicyclic peptide, TATA scaffold)", "note": "[BCY15429]", "Kd": 4}
{"binder": "Ac-CNTVLCGWA[hArg]ANSLCAK(PYA) (linker 1-6-15 via TATA, bicyclic peptide, TATA scaffold)", "note": "[BCY18549]", "Kd": 42.9}
{"binder": "ACNTVLCNWARYNSLCA (linker 2-7-16 via TATA, bicyclic peptide, TATA scaffold)", "note": "[BCY17160]", "Kd": 4.8}
{"binder": "ACNTVLCAWARANSYCA (linker 2-7-16 via TATA, bicyclic peptide, TATA scaffold)", "note": "[BCY17161]", "Kd": 4.4}
{"binder": "Ac-CN[Hyp]VLCSWA[hArg]ANSFC (linker 1-6-15 via TATA, bicyclic peptide, TATA scaffold)", "note": "[BCY18210]", "Kd": 10.6}
{"binder": "Ac-CNAVLCSWA[hArg]ANSFC (linker 1-6-15 via TATA, bicyclic peptide, TATA scaffold)", "note": "[BCY18259]", "Kd": 13}
{"binder": "Ac-CNAVLCSWA[hArg]SNSFC (linker 1-6-15 via TATA, bicyclic peptide, TATA scaffold)", "note": "[BCY19026]", "Kd": 45.2}
{"binder": "Ac-CNSVLCSWA[hArg]ANSFC (linker 1-6-15 via TATA, bicyclic peptide, TATA scaffold)", "note": "[BCY18658]", "Kd": 13.5}
{"binder": "Ac-CNAVLCSWA[hArg]TNSFC (linker 1-6-15 via TATA, bicyclic peptide, TATA scaffold)", "note": "[BCY19025]", "Kd": 70.7}
{"binder": "ACNQVLCRWAQVNSMCA (linker 2-7-16 via TATA, bicyclic peptide, TATA scaffold)", "note": "[BCY17158]", "Kd": 8.1}
{"target": "T1, Biotinylated Human ACE2, His, Avitag …", "assay": "SPR single cycle kinetics, ACE2 captured on CAP chip, peptide analyte; geometric mean", "protocol": "(§2) Binding of bicyclic peptides of the invention to Biotinylated Human ACE2, His, Avitag™ protein (ACROBiosystems, AC2-H82E6) was assessed by a SCK analysis. Experiments were performed at 25° C. on a Biacore T200 (Cytiva) running Biacore T200 Control software V2.0.1 and Evaluation software V3.0 (Cytiva). HBS-EP+ (Cytiva) was used as running buffer as well as for ligand and analyte dilutions. Biotin CAPture reagent was loaded onto a Series S Sensor CAP Chip (Cytiva) followed by loading of the ACE2 protein at a flow rate of 2 μl/min. The surface was then allowed to stabilise.\n(§3) SCK data was obtained using bicyclic peptides of the invention as analytes injected at a flow rate of 30 μl/min to minimise any potential mass transfer effects. […] The association phases were monitored for 100 seconds for each of the four injections of increasing concentrations of analyte and a single dissociation phase was measured for 400 seconds following the last injection of analyte. Regeneration of the sensor chip surface was conducted using the CAP Chip standard regeneration buffer (Cytiva).\nas §1, with “below)” for “above)”, “1b below).” for “1 b above).”", "units": {"Kd": "nM"}}
{"binder": "ACPSQYKCWRGKCA (linker 2-8-13 via TATA, bicyclic peptide, TATA scaffold)", "note": "[BCY15427]", "Kd": 150}
{"binder": "ACNTVLCGWARANSLCA (linker 2-7-16 via TATA, bicyclic peptide, TATA scaffold)", "note": "[BCY17162]", "Kd": 5.7}
{"binder": "ACNAVLCSWARANS[Phe(3-Cl)]CA (linker 2-7-16 via TATA, bicyclic peptide, TATA scaffold)", "note": "[BCY17339]", "Kd": 4.7}
{"binder": "ACNTVLCAWATQNSLCA (linker 2-7-16 via TATA, bicyclic peptide, TATA scaffold)", "note": "[BCY17164]", "Kd": 14.8}
{"binder": "ACNAVLCSWARANS[Phe(2-Me)]CA (linker 2-7-16 via TATA, bicyclic peptide, TATA scaffold)", "note": "[BCY17335]", "Kd": 2.5}
{"binder": "ACNTLYKCWRGKCA (linker 2-8-13 via TATA, bicyclic peptide, TATA scaffold)", "note": "[BCY17155]", "Kd": 107}
{"binder": "ACNAVLCSWARANSFCA (linker 2-7-16 via TATA, bicyclic peptide, TATA scaffold)", "note": "[BCY15429]", "Kd": 3.4}
{"binder": "ACNAVLCSWARANSYCA (linker 2-7-16 via TATA, bicyclic peptide, TATA scaffold)", "note": "[BCY17690]", "Kd": 4.8}
{"binder": "ACNAVLCSWARANS[Phe(3-Me)]CA (linker 2-7-16 via TATA, bicyclic peptide, TATA scaffold)", "note": "[BCY17336]", "Kd": 8.3}
{"binder": "ACTELYKCWRGRCA (linker 2-8-13 via TATA, bicyclic peptide, TATA scaffold)", "note": "[BCY17156]", "Kd": 151}
{"binder": "ACNAVLCSWARANS[Phe(2-F)]CA (linker 2-7-16 via TATA, bicyclic peptide, TATA scaffold)", "note": "[BCY17341]", "Kd": 3.1}
{"binder": "ACSPVLCAWATRNSLCA (linker 2-7-16 via TATA, bicyclic peptide, TATA scaffold)", "note": "[BCY17165]", "Kd": 12.5}
{"binder": "Ac-ACNAVLCSWARANSFCA (linker 2-7-16 via TATA, bicyclic peptide, TATA scaffold)", "note": "[BCY17691]", "Kd": 3.9}
{"binder": "ACDTLYKCWRGRCA (linker 2-8-13 via TATA, bicyclic peptide, TATA scaffold)", "note": "[BCY17153]", "Kd": 91.7}
{"binder": "ACNAVLCSWARANS[Phe(3-F)]CA (linker 2-7-16 via TATA, bicyclic peptide, TATA scaffold)", "note": "[BCY17342]", "Kd": 3.3}
{"binder": "B1", "Kd": 2.7}
{"binder": "ACNAV[tBuAla]CSWARANSFCA (linker 2-7-16 via TATA, bicyclic peptide, TATA scaffold)", "note": "[BCY17333]", "Kd": 5}
{"binder": "ACNTVLCNWARYNSLCA (linker 2-7-16 via TATA, bicyclic peptide, TATA scaffold)", "note": "[BCY17160]", "Kd": 4.2}
{"binder": "Ac-CNAVLCSWA[hArg]ANSFCK(PYA) (linker 1-6-15 via TATA, bicyclic peptide, TATA scaffold)", "note": "[BCY18784]", "Kd": 25.3}
{"binder": "ACAEIYKCWRGRCA (linker 2-8-13 via TATA, bicyclic peptide, TATA scaffold)", "note": "[BCY17152]", "Kd": 120}
{"binder": "ACESLYKCWRGRCA (linker 2-8-13 via TATA, bicyclic peptide, TATA scaffold)", "note": "[BCY17154]", "Kd": 104}
{"binder": "ACNRVLCAWATANSMCA (linker 2-7-16 via TATA, bicyclic peptide, TATA scaffold)", "note": "[BCY17159]", "Kd": 4.7}
{"binder": "ACNAVLCSWARANS[Phe(4-Me)]CA (linker 2-7-16 via TATA, bicyclic peptide, TATA scaffold)", "note": "[BCY17337]", "Kd": 5}
{"binder": "ACNTVLCAWARANSYCA (linker 2-7-16 via TATA, bicyclic peptide, TATA scaffold)", "note": "[BCY17161]", "Kd": 4.2}
{"binder": "Ac-CN[hArg]VLCSWA[hArg]ANSFC (linker 1-6-15 via TATA, bicyclic peptide, TATA scaffold)", "note": "[BCY18350]", "Kd": 8.3}
{"binder": "Ac-CNSVLCSWA[hArg]ANSFC (linker 1-6-15 via TATA, bicyclic peptide, TATA scaffold)", "note": "[BCY18658]", "Kd": 6.7}
{"binder": "Ac-CNTVLCSWA[hArg]ANSFC (linker 1-6-15 via TATA, bicyclic peptide, TATA scaffold)", "note": "[BCY18657]", "Kd": 69.3}
{"binder": "ACNQVLCRWAQVNSMCA (linker 2-7-16 via TATA, bicyclic peptide, TATA scaffold)", "note": "[BCY17158]", "Kd": 4}
{"binder": "ACNAVLCSWA[Agb]ANSFCA (linker 2-7-16 via TATA, bicyclic peptide, TATA scaffold)", "note": "[BCY17689]", "Kd": 4.7}
{"binder": "ACNAVLCSWARANS[Phe(2-Cl)]CA (linker 2-7-16 via TATA, bicyclic peptide, TATA scaffold)", "note": "[BCY17338]", "Kd": 3.2}
{"binder": "ACNKVLCSWASRNSMCA (linker 2-7-16 via TATA, bicyclic peptide, TATA scaffold)", "note": "[BCY17157]", "Kd": 11.8}
{"binder": "Ac-CNAVLCSWARANSFC (linker 1-6-15 via TATA, bicyclic peptide, TATA scaffold)", "note": "[BCY17663]", "Kd": 5.3}
{"binder": "ACNTVLCAWAMNNSMCA (linker 2-7-16 via TATA, bicyclic peptide, TATA scaffold)", "note": "[BCY17163]", "Kd": 36.8}
{"target": "T1, Biotinylated Human ACE2, His, Avitag …", "assay": "SPR single cycle kinetics, ACE2 captured on CAP chip, peptide analyte; geometric mean; * Rmax set to 10", "protocol": "as §2, §3\nas §1, with “below)” for “above)”, “1b below).” for “1 b above).”", "units": {"Kd": "nM"}}
{"binder": "Ac-CNTVLCGWARANSLCK(PYA) (linker 1-6-15 via TATA, bicyclic peptide, TATA scaffold)", "note": "[BCY18550]", "Kd": 9.7}
{"binder": "Ac-CNTVLCGWA[hArg]ANSLCAK(PYA) (linker 1-6-15 via TATA, bicyclic peptide, TATA scaffold)", "note": "[BCY18549]", "Kd": 63.9}
{"binder": "Ac-CN[Hyp]VLCSWA[hArg]ANSFC (linker 1-6-15 via TATA, bicyclic peptide, TATA scaffold)", "note": "[BCY18210]", "Kd": 21.1}
{"binder": "Ac-CNAVLCSWA[hArg]ANSFC (linker 1-6-15 via TATA, bicyclic peptide, TATA scaffold)", "note": "[BCY18259]", "Kd": 23}
{"binder": "Ac-CNRVLCAWATANS[Hse(Me)]CK(PYA) (linker 1-6-15 via TATA, bicyclic peptide, TATA scaffold)", "note": "[BCY18349]", "Kd": 59.6}
